US20230310596A1, “DRUG FOR TREATING TUMOR” (priority 2020, published 2023)
Where two headings read alike, the source gives them in different places.

System: MSI-H or dMMR endometrial cancer
Format: in vivo, human
Protocol: Endometrial cancer subjects meeting inclusion criteria were first tested for MMR/MSI status by immunohistochemical or PCR methods, and then grouped according to the MSI-H/dMMR test results; for non-MSI-H/non-dMMR subjects, an anti-PD-L1 antibody and anlotinib hydrochloride (cohort I) were administered, while for MSI-H or dMMR subjects, an anti-PD-L1 antibody (cohort II) was administered, and for patients with disease under control (CR + PR + SD) and tolerable adverse reactions, the administration could be continued until clinical benefits were lost, until the toxicity was intolerable, until PD/iCPD was given by efficacy evaluation, or until the investigator deemed further medication inappropriate. Efficacy evaluations were performed every 6 weeks (42 days) ± 3 days, starting on day 1 of treatment cycle 1, and the efficacy evaluations were performed once every 12 weeks (84 days) ± 3 days after 54 weeks, until the subjects developed disease progression confirmed by oncologic imaging. 1) Histologically or cytologically confirmed unresectable recurrent or metastatic advanced endometrial cancer (previously received 1-2 lines of systemic standard chemotherapy and failed or was intolerant; preliminary neoadjuvant or adjuvant chemotherapy was allowed). 2) It was confirmed that there was at least one measurable lesion according to the Response Evaluation Criteria in Solid Tumors (RECIST 1.1). 3) Age: ≥18 years; ECOG PS scoring: 0-1; an expected survival time of more than 3 months. Anti-PD-L1 antibody injection hu5G11-hIgG1: 1200 mg of the anti-PD-L1 antibody injection (strength: 600 mg/20 mL) was diluted to 250 mL with normal saline, and the infusion time was 60 ± 10 min (from the beginning of the infusion of the anti-PD-L1 antibody injection until the end of the infusion of the anti-PD-L1 antibody injection and the completion of flushing the tube with normal saline (20 mL recommended)). The anti-PD-L1 antibody injection was administered on the first day, and once every 21 days, that is, 21 days were counted as a treatment cycle (d1/q3w). Safety evaluation criteria: the severity of adverse events was determined using the NCI-CTC AE 5.0 criteria. Effectiveness evaluation criteria: disease status was determined using RECIST 1.1, iRECIST criteria. RECIST 1.1 criteria were used as the primary criteria, and iRECIST criteria were used to confirm efficacy. That is, subjects determined to be disease progression (PD) according to RECIST 1.1 criteria were further confirmed according to iRECIST criteria to determine whether to take further medication observation. Primary endpoint: objective response rate (ORR) for IRC evaluation Secondary endpoint: (1) objective response rate (ORR), disease control rate (DCR), duration of response (DOR), progression-free survival (PFS), overall survival (OS), DOR rate (≥ 6 months), and the like evaluated by investigators; (2) the incidence and severity of adverse events (AEs) and serious adverse events (SAEs), and abnormal laboratory test indicators.

[1] = cohort II, after at least 2 cycles of treatment
[2] = cohort II, after at least 2 cycles of treatment, listed as anti-PD-L1 antibody

B1: Cohort II: anti-PD-L1 humanized monoclonal antibody hu5G11-hIgG1, prepared as described in WO2016022630, given as injection (antibody, V domains shown)
VH: QITLKESGPTLVKPTQTLTLTCTVSGFSLSTYGVHWIRQPPGKALEWLGVIWRGVTTDYNAAFMSRLTITKDNSKNQVVLTMNNMDPVDTATYYCARLGFYAMDYWGQGTLVTVSS
VL: DIQMTQSPSSLSASVGDRVTITCKASQSVSNDVAWYQQKPGKAPKLLIYYAANRYTGVPDRFSGSGYGTDFTFTISSLQPEDIATYFCQQDYTSPYTFGQGTKLEIK
modifications: hIgG1 constant regions; VH of hu5G11-hIgG1 and hu5G11-hIgG4; VL of hu5G11-hIgG1 and hu5G11-hIgG4
best response CR, number of subjects (cohort II, MSI-H or dMMR subjects, after at least 2 cycles of treatment, RECIST 1.1/iRECIST, antibody 1200 mg d1/q3w): 0/6
DCR, number of subjects [1]: 3/6
ORR, number of subjects [1]: ⅙
best response CR, ratio [1]: (0.00%)
best response PD, ratio [1]: (50.00%)
best response PR (partial response), number of subjects [1]: ⅙
best response PR, ratio [1]: (16.67%)
best response SD (stable disease), number of subjects [1]: 2/6
best response SD, ratio [1]: (33.33%)
disease control rate (DCR) [1]: (50.00%)
objective response rate (ORR) [1]: (16.67%)
disease control rate (DCR) [2]: 50.00%
objective response rate (ORR) [2]: 16.67%
adverse reaction incidence (human, in vivo): 67%
incidence of adverse reactions above grade 3 (human, in vivo): 16%
